The source of these data is paper PMC3033427, “Role of the Small GTPase Rho3 in Golgi/Endosome Trafficking through Functional Interaction with Adaptin in Fission Yeast” (PLoS ONE, 2011).

The target in assay [1] is T1, Apm1-GST (purified full-length Apm1 fused to GST) (S. pombe, UniProt Q9HFE5 1-426).
T1 construct: Apm1, µ1 subunit of the clathrin-associated adaptor protein-1 (AP-1) complex of fission yeast, full length; the methods give no details of the construct or its expression; also called GST-fused Apm1; µ1 subunit of the AP-1 complex; source: purified; not shown: GST, C-terminal, kept
T1 sequence (looked up): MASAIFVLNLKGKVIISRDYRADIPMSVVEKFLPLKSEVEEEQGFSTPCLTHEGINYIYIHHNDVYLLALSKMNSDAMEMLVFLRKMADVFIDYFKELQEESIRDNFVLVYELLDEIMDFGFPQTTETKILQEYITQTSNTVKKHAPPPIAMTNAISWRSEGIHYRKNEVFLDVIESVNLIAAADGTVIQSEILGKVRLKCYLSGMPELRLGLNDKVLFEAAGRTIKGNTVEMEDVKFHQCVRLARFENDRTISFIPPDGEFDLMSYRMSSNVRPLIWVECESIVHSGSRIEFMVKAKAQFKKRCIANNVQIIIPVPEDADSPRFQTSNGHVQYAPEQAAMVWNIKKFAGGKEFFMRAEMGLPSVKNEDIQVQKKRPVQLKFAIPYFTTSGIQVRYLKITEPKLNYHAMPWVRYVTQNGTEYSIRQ
In words: affinity capillary electrophoresis; GFP-fused Rho3 sample migrating in 50 mM phosphate buffer pH 6.8 containing Apm1-GST at 100 µg/ml (control: GST-Rho3 at 100 µg/ml); 15 kV, 25°C, laser-induced fluorescence detection; migration time-shift = t(control) - t(affinity).

In assay [2] the target is T1, Apm1-GST (purified full-length Apm1 …). Put plainly: affinity capillary electrophoresis; GFP-fused Rho3 sample migrating in 50 mM phosphate buffer pH 6.8 containing Apm1-GST at 200 µg/ml (control: GST-Rho3 at 200 µg/ml); 15 kV, 25°C, laser-induced fluorescence detection; migration time-shift = t(control) - t(affinity).

B1: GFP-Rho3 (wild-type Rho3 fused to GFP) (natural protein, S. pombe, UniProt O13928 1-205, looked up)
chain: MSSCFGSKKKPIYRKIVILGDGAAGKTSLLNVFTKGYFPQVYEPTIFENYIHDIFVDGNSIELSLWDTAGQEEYDQLRSLSYSDTHVIMICFAVDSRDSLENVITKWLPEVSSNCPGVKLVLVALKCDLRGADEEQVDHSKIIDYEEGLAAAKKINAVRYLECSAKLNRGVNEAFTEAARVALAAQPRGTKDGADESHGTGCIIA
notes: Rho3, Rho-family small GTPase of S. pombe (SPAC23C4.08); complete open reading frame amplified from genomic DNA, first methionine as in the Sanger Institute database; The name GFP-Rho3 puts GFP at the N-terminus, but the methods say the ORF 'was ligated to the N-terminus of the GFP'; also called GFP-fused Rho3; source: S. pombe cells, overexpressed from the inducible nmt1 promoter, …
Turning to B1, the migration time-shift is 0.45 min in assay [1] and 0.84 min in assay [2].

B2: GFP-Rho3G22V (GTP-locked variant of Rho3 fused to GFP) (natural protein, S. pombe, UniProt O13928 1-205, looked up)
chain: MSSCFGSKKKPIYRKIVILGDVAAGKTSLLNVFTKGYFPQVYEPTIFENYIHDIFVDGNSIELSLWDTAGQEEYDQLRSLSYSDTHVIMICFAVDSRDSLENVITKWLPEVSSNCPGVKLVLVALKCDLRGADEEQVDHSKIIDYEEGLAAAKKINAVRYLECSAKLNRGVNEAFTEAARVALAAQPRGTKDGADESHGTGCIIA
notes: Rho3 of S. pombe (SPAC23C4.08), complete open reading frame, Gly22 changed to Val by site-directed mutagenesis; also called Rho3GV; GFP-Rho3GV; source: S. pombe cells, overexpressed from the inducible nmt1 promoter, in lysate (pull-down); not shown: GFP (S65T), N-terminal, kept
With B2, the migration time-shift was determined as 1.33 min in assay [1] and 0.94 min in assay [2].

B3: GFP-Rho3E48V (effector domain mutant of Rho3 fused to GFP) (natural protein, S. pombe, UniProt O13928 1-205, looked up)
chain: MSSCFGSKKKPIYRKIVILGDGAAGKTSLLNVFTKGYFPQVYEPTIFVNYIHDIFVDGNSIELSLWDTAGQEEYDQLRSLSYSDTHVIMICFAVDSRDSLENVITKWLPEVSSNCPGVKLVLVALKCDLRGADEEQVDHSKIIDYEEGLAAAKKINAVRYLECSAKLNRGVNEAFTEAARVALAAQPRGTKDGADESHGTGCIIA
notes: Rho3 of S. pombe (SPAC23C4.08), complete open reading frame, Glu48 changed to Val by site-directed mutagenesis; Analogue of the budding yeast rho3-V51 mutant; also called Rho3EV; GFP-Rho3EV; source: S. pombe cells, overexpressed from the inducible nmt1 promoter, in lysate (pull-down); not shown: GFP (S65T), N-terminal, kept
On to B3, for which the migration time-shift in assay [1] was 0.25 min; in assay [2] it was 0.82 min.
